Reference: patent US8715959B2, “Substitution mutant receptors and their use in a nuclear receptor-based inducible gene expression system” (priority 2001, dated 2014)
Where a chain is given by its changes, count along the chain named. Numbers in names are those of the source.

B1: G121R: DmEcR-CDEF LBD substitution mutant, Glycine (G) to Arginine (R) (protein)
chain: LTYNQLAVIYKLIWYQDGYEQPSEEDLRRIMSQPDENESQTDVSFRHITEITILTVQLIVEFAKGLPAFTKIPQEDQITLLKACSSEVMMLRMARRYDHSSDSIFFANNRSYTRDSYKMARMADNIEDLLHFCRQMFSMKVDNVEYALLTAIVIFSDRPGLEKAQLVEAIQSYYIDTLRIYILNRHCGDSMSLVFYAKLLSILTELRTLGNQNAEMCFSLKLKNRKLPKFLEEIWDV
modifications: Drosophila melanogaster
B2: N213A: DmEcR-CDEF LBD substitution mutant, Asparagine (N) to Alanine (A) (protein)
chain: B1 chain with R121G, N213A
modifications: Drosophila melanogaster
B3: A107P: DmEcR-CDEF LBD substitution mutant, Alanine (A) to Proline (P) (protein)
chain: B1 chain with A107P, R121G
modifications: Drosophila melanogaster
B4: C217S: DmEcR-CDEF LBD substitution mutant, Cysteine (C) to Serine (S) (protein)
chain: B1 chain with R121G, C217S
modifications: Drosophila melanogaster
B5: Q21A: CfEcR-DEF LBD substitution mutant, Glutamine (Q) to Alanine (A) (protein, listed as Choristoneura fumiferana)
chain: LTANQQFLIARLIWYQDGYEAPSDEDLKRITQTWQQADDENEESDTPFRQITEMTILTVQLIVEFAKGLPGFAKISQPDQITLLKACSSEVMMLRVARRYDAASDSVLFANNQAYTRDNYRKAGMAYVIEDLLHFCRCMYSMALDNIHYALLTAVVIFSDRPGLEQPQLVEEIQRYYLNTLRIYILNQLSGSARSSVIYGKILSILSELRTLGMQNSNMCISLKLKNRKLPPFLEEIWDV
B6: I51A: CfEcR-DEF LBD substitution mutant, Isoleucine (I) to Alanine (A) (protein, listed as Choristoneura fumiferana)
chain: B5 chain with A21Q, I51A
B7: F48A: CfEcR-DEF LBD substitution mutant, Phenylalanine (F) to Alanine (A) (protein, listed as Choristoneura fumiferana)
chain: B5 chain with A21Q, F48A

Key:
DmEcR-CDEF [1] = assay: GAL4/DmEcR-CDEF wild-type and mutants, luciferase reporter transactivation in NIH3T3 cells; type: cell-based, Drosophila melanogaster; details: GAL4/DmEcR-CDEF + VP16/LmUSP-EF + pFRLUC, 48 hours
Procedure: (§1) DNAs corresponding to the various switch constructs outlined in Example 1, specifically switches 1.1-1.2, were transfected into mouse NIH3T3 cells (ATCC) as follows. […] Two μl of Superfect™ was mixed with 100 μl of growth medium and 50 ng of either GAL4/wild-type EcR or Gal4/mutant EcR cassette, 50 ng of VP16/LmUSP-EF and 200 ng of pFRLuc were added to the transfection mix. […] The cells were harvested and reporter activity was assayed as described above.
Applicants mutated amino acid residues predicted to be critical for ecdysteroid binding and created GAL4/mutantDmEcR-CDEF cDNA gene expression cassettes as described in Example 1 above using PCR-mediated site-directed mutagenesis. The mutated and the WT cDNAs corresponding to the various switch constructs outlined above in Examples 1.8 and 1.9 were made and tested in reporter assays in NIH3T3 cells as described in Example 2. Each GAL4/DmEcR-CDEF construct, VP16/LmUSP-EF, and pFRLUC were transfected into NIH3T3 cells and the transfected cells were treated with 2.5 μM GS-™E or Ponasterone A. The cells were harvested and the reporter activity was measured at 48 hours after addition of ligand. The fold induction was calculated by dividing reporter activity in the presence of ligand with the reporter activity in the absence of ligand. From the fold induction, percent wild-type activity was calculated for each mutant.

DmEcR-CDEF [2] = assay: VP16/DmEcR-CDEF wild-type and mutants, 6xEcRE β-gal reporter transactivation in insect L57 cells; type: cell-based, Drosophila melanogaster; details: for Fold increase over WT, 1 μM 20-hydroxyecdysone / Fold increase over WT, 1 μM GS™-E / reduction in steroid activity: VP16/DmEcR-CDEF; for reduction in steroid activity / steroid activity (summary of Table 14): 20E; for reduction in steroid activity: versus wild-type; for non-steroid activity (summary of Table 14): GS™-E; for non-steroid activity (summary of Table 14) / steroid activity (summary of Table 14): DmEcR mutants
Procedure: The wild-type and mutant DmEcR-CDEF receptors were also used to make VP16/wild-type or mutantDmEcR-CDEF constructs as described in Example 1.10 and 1.11. VP16DmEcR-CDEF and a 6×EcREβ-gal reporter were transfected into L57 cells and the transfected cells were treated with 1 uM 20-hydroxyecdysone (20E) or GS™-E. The cells were harvested, lysed and the reporter activity was measured as described above in Example 6. The fold induction was calculated by dividing reporter activity in the presence of ligand with the reporter activity in the absence of ligand. From the fold induction, percent wild-type activity was calculated for each mutant.

CfEcR-DEF = assay: GAL4/mutant CfEcR-DEF + VP16/LmUSP-EF GAL4-driven luciferase reporter transactivation in NIH3T3 cells; type: cell-based, Choristoneura fumiferana; details: NIH3T3 cells, relative to Gal4/wild-type CfEcR-DEF switch activity; for Fold increase over WT, 2.5 μM GS™-E: 2.5 μM GS™-E non-steroidal ligand; for Fold increase over WT, 2.5 μM PonA: 2.5 μM PonA steroidal ligand
Procedure: DNAs corresponding to the various switch constructs outlined in Example 1, specifically switches 1.1-1.13, were transfected into mouse NIH3T3 cells (ATCC) or L57 cells (Dr. Peter Cherbas; Indiana University) as follows. Standard methods for culture and maintenance of the cells were followed. […] Superfect™ (Qiagen Inc.) was used for 3T3 cells and Lipofectamine™ (LifeTechnologies) was used for L57 cells as the transfection reagents. For 12-well plates, 4 μl of Superfect™ or Lipofectamine™ was mixed with 100 μl of growth medium. One μg of reporter construct and 0.25 μg of each receptor construct of the receptor pair to be analyzed were added to the transfection mix. […] The cells were harvested and reporter activity was assayed.
Cells were harvested 40 hours after adding ligands. […] Twenty μl of lysate were assayed.
Briefly, Applicants mutated amino acid residues predicted to be critical for ecdysteroid binding into alanine and created GAL4/mutantCfEcR-DEF cDNA gene expression cassettes as described in Example 1 above using the Quikchange PCR-mediated site-directed mutagenesis kit (Stratagene, La Jolla, Calif.). The mutated and the WT cDNAs were tested in GAL4-driven luciferase reporter assays.
as §1

Molecule | Fold increase over WT, 2.5 μM GS™-E (DmEcR-CDEF [1]) [fold] | Fold increase over WT, 2.5 μM Ponasterone A (DmEcR-CDEF [1]) [fold] | Fold increase over WT, 1 μM 20-hydroxyecdysone (DmEcR-CDEF [2]) [fold] | Fold increase over WT, 1 μM GS™-E (DmEcR-CDEF [2]) [fold] | reduction in steroid activity (DmEcR-CDEF [2]) [%] | non-steroid activity (summary of Table 14) (DmEcR-CDEF [2]) | steroid activity (summary of Table 14) (DmEcR-CDEF [2]) | Fold increase over WT, 2.5 μM GS™-E (CfEcR-DEF) [fold] | Fold increase over WT, 2.5 μM PonA (CfEcR-DEF) [fold]
B1 | 0.0075 | 0.05 | 0.5 | 0.92 | 50 | minimal effect |  |  | 
B2 |  |  | 0.01 | 0.08 |  | lost sensitivity | lost sensitivity |  | 
B3 |  |  | 0.09 | 0.9 |  | very little effect | loss of most steroid activity |  | 
B4 | 0.014 | 0.0064 | 0.39 | 0.92 | 61 | minimal effect |  |  | 
B5 |  |  |  |  |  |  |  | 0.32 | 0.37
B6 |  |  |  |  |  |  |  | 0.003 | 0.004
B7 |  |  |  |  |  |  |  | 0.007 | 0.007
